For 23 sequences, Kd results are on record in the Immune Epitope Database (IEDB).

As a reminder, the Kd is the free concentration of one partner at which half of the binding sites on the other are occupied at equilibrium, for simple one-to-one binding.

Some targets named below: HLA-A*03:01; HLA-A*33:01; HLA-A*11:01; HLA-A*68:01; HLA-A*31:01; HLA-A*02:06; HLA-A*02:03.
What all share (experiment): IEDB peptide-MHC binding, purified MHC/competitive/radioactivity; filed as Kd, often an IC50 or EC50 that approximates it; ≥ and ≤ were set here for values at or beyond the usual limits of such assays
[1] abbreviates: source organism: Vaccinia virus WR.
Where [2] appears, read: source organism: Human immunodeficiency virus type 1 BH10.
Setting [3] is: source organism: Mammarenavirus whitewaterense.
Setting [4] is: source organism: SARS coronavirus Tor2.
[5] abbreviates: source organism: Mammarenavirus juninense.

On to FMEMFFDYNK, for which the Kd is 552 nM in the assay with HLA-A*03:01 (setting [1]); 2240 nM with HLA-A*33:01 (setting [1]); 88 nM with HLA-A*11:01 (setting [1]); 231 nM in the assay with HLA-A*68:01 (setting [1]); 720 nM with HLA-A*31:01 (setting [1]).

With SVPLPCQLMY, the Kd is 413 nM with HLA-A*03:01 (setting [1]); no less than 53100 nM with HLA-A*33:01 (setting [1]); 38 nM in the assay with HLA-A*11:01 (setting [1]); 14400 nM in the assay with HLA-A*68:01 (setting [1]); no less than 23200 nM with HLA-A*31:01 (setting [1]).

In the case of YISRDELWAR, the Kd was no less than 25600 nM with HLA-A*03:01 (setting [1]); 0.808 nM in the assay with HLA-A*33:01 (setting [1]); 792 nM with HLA-A*11:01 (setting [1]); 32.4 nM in the assay with HLA-A*68:01 (setting [1]); 1.75 nM with HLA-A*31:01 (setting [1]).

For SLLNATDIAV, the Kd is 16.6 nM in the assay with HLA-A*02:06 (setting [2]) and 530 nM with HLA-A*02:03 (setting [2]).

As for KLTLKGMSYV, in the assay with HLA-A*02:03 (source organism: Dengue virus 1 Singapore/S275/1990), the Kd was 53.4 nM.

As for LFLLFLEITY, the Kd worked out at 1960 nM with HLA-A*03:01 (setting [1]); 9640 nM with HLA-A*33:01 (setting [1]); 3720 nM in the assay with HLA-A*11:01 (setting [1]); 274 nM with HLA-A*68:01 (setting [1]); 3460 nM with HLA-A*31:01 (setting [1]).

As to MIIGHIGHHY, the Kd was 47 nM in the assay with HLA-A*03:01 (setting [1]); no less than 55400 nM with HLA-A*33:01 (setting [1]); 103 nM with HLA-A*11:01 (setting [1]); 19.3 nM with HLA-A*68:01 (setting [1]); 151 nM with HLA-A*31:01 (setting [1]).

For NIVTFINDY, the Kd in the assay with HLA-A*03:01 (setting [1]) is no less than 78000 nM; with HLA-A*33:01 (setting [1]) it was no less than 77700 nM; in the assay with HLA-A*11:01 (setting [1]), no less than 45900 nM; with HLA-A*68:01 (setting [1]), 535 nM; with HLA-A*31:01 (setting [1]) it was 14600 nM.

As to LTALLSCIR, the Kd is no less than 78000 nM with HLA-A*03:01 (setting [1]); 1100 nM with HLA-A*33:01 (setting [1]); 914 nM in the assay with HLA-A*11:01 (setting [1]); 7.66 nM with HLA-A*68:01 (setting [1]); 244 nM with HLA-A*31:01 (setting [1]).

On to FSTSAADIK, for which the Kd is 2200 nM in the assay with HLA-A*03:01 (setting [1]); no less than 28900 nM with HLA-A*33:01 (setting [1]); 222 nM in the assay with HLA-A*11:01 (setting [1]); 2.57 nM in the assay with HLA-A*68:01 (setting [1]); no less than 35800 nM with HLA-A*31:01 (setting [1]).

As for QFANVISKIY, the Kd with HLA-A*03:01 (setting [1]) came out at 3390 nM; with HLA-A*33:01 (setting [1]), 1200 nM; with HLA-A*11:01 (setting [1]) it was 8660 nM; with HLA-A*68:01 (setting [1]), 1950 nM; with HLA-A*31:01 (setting [1]), 1140 nM.

For TILEYLYIMR, the Kd with HLA-A*03:01 (setting [1]) amounted to 8990 nM; with HLA-A*33:01 (setting [1]), 2300 nM; in the assay with HLA-A*11:01 (setting [1]), 2060 nM; with HLA-A*68:01 (setting [1]) it was 167 nM; with HLA-A*31:01 (setting [1]), 987 nM.

In the case of SRIFEELVWK, the Kd with HLA-A*03:01 (setting [3]) is 200 nM; with HLA-A*33:01 (setting [3]) it was no less than 52000 nM; with HLA-A*11:01 (setting [3]), 259 nM; in the assay with HLA-A*68:01 (setting [3]), 477 nM; in the assay with HLA-A*31:01 (setting [3]), 3640 nM.

In the case of LAIKNYYRK, the Kd with HLA-A*03:01 (setting [1]) is no less than 45700 nM; with HLA-A*33:01 (setting [1]), 1440 nM; with HLA-A*11:01 (setting [1]), 75.9 nM; in the assay with HLA-A*68:01 (setting [1]) it was 12.7 nM; in the assay with HLA-A*31:01 (setting [1]), 783 nM.

NQLTYVVIAI: the Kd with HLA-A*02:06 (source organism: Dengue virus 2 Jamaica/1409/1983) stood at 23.6 nM.

Turning to AVLSAATETY, the Kd with HLA-A*03:01 (setting [1]) amounted to 237 nM; in the assay with HLA-A*33:01 (setting [1]), 8800 nM; in the assay with HLA-A*11:01 (setting [1]), 271 nM; with HLA-A*68:01 (setting [1]), 3950 nM; with HLA-A*31:01 (setting [1]) it was 10400 nM.

With YIYKSGKLVK, the Kd with HLA-A*03:01 (setting [1]) turned out to be 7.74 nM; in the assay with HLA-A*33:01 (setting [1]), 7860 nM; with HLA-A*11:01 (setting [1]), 36 nM; in the assay with HLA-A*68:01 (setting [1]) it was 539 nM; with HLA-A*31:01 (setting [1]), 7800 nM.

Consider ITLKIIETY, for which the Kd in the assay with HLA-A*03:01 (setting [1]) was no less than 78000 nM; in the assay with HLA-A*33:01 (setting [1]), no less than 77700 nM; with HLA-A*11:01 (setting [1]), no less than 77900 nM; with HLA-A*68:01 (setting [1]), no less than 77700 nM; with HLA-A*31:01 (setting [1]) it was 751 nM.

As to TSRTLSYYK, the Kd in the assay with HLA-A*03:01 (setting [4]) stood at 450 nM; in the assay with HLA-A*33:01 (setting [4]), 2400 nM; with HLA-A*11:01 (setting [4]) it was 160 nM; with HLA-A*68:01 (setting [4]), 840 nM; with HLA-A*31:01 (setting [4]), 179 nM.

Regarding VCFHEFLSSK, the Kd is 3470 nM with HLA-A*03:01 (setting [5]); no less than 70000 nM with HLA-A*33:01 (setting [5]); 4500 nM with HLA-A*11:01 (setting [5]); 14400 nM with HLA-A*68:01 (setting [5]); 1530 nM in the assay with HLA-A*31:01 (setting [5]).

With WSRIGTAATK, the Kd with HLA-A*03:01 (setting [1]) was 101 nM; in the assay with HLA-A*33:01 (setting [1]), no less than 70000 nM; with HLA-A*11:01 (setting [1]), 1070 nM; with HLA-A*68:01 (setting [1]), 786 nM; with HLA-A*31:01 (setting [1]) it was no less than 28900 nM.

Regarding VSAKQLRTR, the dissociation constant Kd with HLA-A*03:01 (setting [1]) is 12700 nM; in the assay with HLA-A*33:01 (setting [1]) it was 13400 nM; in the assay with HLA-A*11:01 (setting [1]) it was 2730 nM; with HLA-A*68:01 (setting [1]), 1050 nM; with HLA-A*31:01 (setting [1]), 286 nM.

As to GLLATNNVFR, the Kd with HLA-A*03:01 (setting [4]) stood at 428 nM; with HLA-A*33:01 (setting [4]), 5920 nM; in the assay with HLA-A*11:01 (setting [4]), 816 nM; with HLA-A*68:01 (setting [4]), 794 nM; with HLA-A*31:01 (setting [4]), 487 nM.
